Reference: US20100129369A1 (Eli Lilly, published 2010)
Substitutions are numbered along the chain they refer to.

B1: D11-C27G3 (antibody, human IgG2, kappa, V domains shown)
VH: QVQLVQSGAEVKKPGSSVKVSCKASGYTFTSRYIHWVRQAPGQGLEWMGWIYPVTGDTYYREPFKGRVTITADKSTSTAYMELSSLRSEDTAVYYCARGYGAFYYWGQGTLVTVSS
VL: EIVLTQSPGTLSLSPGERATLSCSVSSSISSTNLHWYQQKPGQAPRLLIYGTSRLRSGIPDRFSGSGSGTDFTLTISRLEPEDFAVYYCQQWSSYPYSFGQGTKLEIKR
notes: Human engineered IgG2 kappa c-Met antibody; also called D11-27G3; D11-C27G3 IgG2
B2: C8-6 (antibody, human IgG2, kappa, V domains shown)
VH: QVQLVQSGAEVKKPGASVKVSCKASGYTFTDYYMHWVRQAPGQGLEWMGRVNPNRGGTTYNQKFEGRVTMTTDTSTSTAYMELRSLRSDDTAVYYCARTNWLDYWGQGTTVTVSS
VL: DIQMTQSPSSLSASVGDRVTITCSVSSSVSSIYLHWYQQKPGKAPKLLIYSTSNLASGVPSRFSGSGSGTDFTLTISSLQPEDFATYYCIQYSGYPLTFGGGTKVEIKR
notes: Named IgG4 kappa; also called C8-6 IgG4
B3: C8-co-16 (antibody, human IgG2, kappa, V domains shown)
VH: B2 VH with N54Y, G57S, T99A, W101I
VL: B2 VL with S30R, I90Q, Q91V, S93R
notes: Named IgG4 kappa; also called C8-co-16 IgG4

biological target: T1, human c-Met ECD-Fc-Flis (human); assay: HGF-blocking ELISA: HGF signal on coated c-Met ECD-Fc-Flis; Ab 7.63 ng/mL
T1 construct: c-Met ECD fused to Fc with flag- and His-tag at the C-terminus; also called human c-Met extracellular domain (ECD)-Fc-Flis fusion; human c-Met-Flis-Fc ECD
T1 sequence (chain, as listed by the source): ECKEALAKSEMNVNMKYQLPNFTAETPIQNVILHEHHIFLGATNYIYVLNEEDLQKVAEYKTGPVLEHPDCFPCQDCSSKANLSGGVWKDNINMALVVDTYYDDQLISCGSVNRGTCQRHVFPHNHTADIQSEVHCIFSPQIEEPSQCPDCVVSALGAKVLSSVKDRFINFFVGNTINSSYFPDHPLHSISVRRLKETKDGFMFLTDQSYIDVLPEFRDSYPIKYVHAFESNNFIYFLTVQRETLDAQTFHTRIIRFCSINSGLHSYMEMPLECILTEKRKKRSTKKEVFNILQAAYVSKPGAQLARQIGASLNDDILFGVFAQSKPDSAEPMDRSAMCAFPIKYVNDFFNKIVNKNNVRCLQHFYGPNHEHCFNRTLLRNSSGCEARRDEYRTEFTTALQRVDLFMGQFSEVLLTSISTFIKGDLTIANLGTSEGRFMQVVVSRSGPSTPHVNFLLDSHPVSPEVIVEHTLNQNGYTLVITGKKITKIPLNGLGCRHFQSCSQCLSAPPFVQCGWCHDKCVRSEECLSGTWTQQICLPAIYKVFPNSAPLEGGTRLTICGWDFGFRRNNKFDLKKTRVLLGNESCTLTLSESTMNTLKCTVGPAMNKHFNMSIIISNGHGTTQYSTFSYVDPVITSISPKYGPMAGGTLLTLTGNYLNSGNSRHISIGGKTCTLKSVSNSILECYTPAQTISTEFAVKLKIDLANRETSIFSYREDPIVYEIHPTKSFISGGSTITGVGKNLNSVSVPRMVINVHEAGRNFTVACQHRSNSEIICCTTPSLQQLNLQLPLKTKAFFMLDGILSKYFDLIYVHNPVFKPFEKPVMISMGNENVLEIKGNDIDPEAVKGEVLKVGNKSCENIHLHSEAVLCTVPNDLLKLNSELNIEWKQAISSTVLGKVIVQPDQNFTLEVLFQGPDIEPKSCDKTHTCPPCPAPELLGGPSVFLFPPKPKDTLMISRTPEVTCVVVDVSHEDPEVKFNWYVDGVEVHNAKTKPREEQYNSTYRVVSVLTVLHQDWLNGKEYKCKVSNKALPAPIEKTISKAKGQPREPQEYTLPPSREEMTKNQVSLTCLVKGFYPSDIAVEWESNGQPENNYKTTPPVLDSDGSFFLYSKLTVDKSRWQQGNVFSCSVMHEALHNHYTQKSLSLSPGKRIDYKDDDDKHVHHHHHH
Method: (§1) Wells of 96-well EIA/RIA high binding plates (Costar, #2592) are coated with 100 μL of human c-Met ECD-Fc-Flis (SEQ ID NO:72) (2 μg/mL) in Dulbecco's phosphate buffered saline (DPBS) overnight at room temperature; washed four times with wash buffer (Tris-buffered saline, pH 8.0, with 0.05% (v/v) polysorbate 20 (TWEEN®-20) (TBS-T) (BioFX Labs, # WSHW-1000-01) in a plate washer; blocked by adding 300 μL of blocking buffer (TBS-T plus 1% (w/v) bovine serum albumin (BSA) (Jackson Immuno, #001-000-162); and incubating for 60 min. at 37° C. Blocking buffer is then removed from the wells and 50 μL of antibodies in blocking buffer at final concentrations as indicated in Table 7 are added into each well, respectively. […] The plates with c-Met antibodies are incubated for 90 min. at 37° C. […] The wells are then washed four times with TBS-T in a plate washer. […] The plates are incubated for 90 min. at room temperature. The wells are again washed four times with TBS-T in a plate washer. 100 μL of a 1:200 dilution of streptavidin-horseradish peroxidase (HRP) (R&D Systems, DY998) in blocking buffer are added to each well. The plates are incubated for 30 min. at room temperature. The wells are washed four times with TBS-T in a plate washer. 100 μL/well of substrate solution (BioFx, #TMBW-1000-01) are then added, and the plates are incubated for 10 min. at room temperature. To stop the reaction, 100 μL/well of stop solution (BioFx, # LSTP-1000-01) are added. The samples are read at a wavelength of 450-570 nm on a microplate reader (Spectra, MAX 190) and no background is subtracted.

Binder	AVG A450 nm [A450 nm]
B1	2.27
B2	2.64
B3	2.2

biological target: T2, human c-Met (human, UniProt P08581 25-1390); assay: cell-based or functional assay
T2 sequence (P08581 25-1390): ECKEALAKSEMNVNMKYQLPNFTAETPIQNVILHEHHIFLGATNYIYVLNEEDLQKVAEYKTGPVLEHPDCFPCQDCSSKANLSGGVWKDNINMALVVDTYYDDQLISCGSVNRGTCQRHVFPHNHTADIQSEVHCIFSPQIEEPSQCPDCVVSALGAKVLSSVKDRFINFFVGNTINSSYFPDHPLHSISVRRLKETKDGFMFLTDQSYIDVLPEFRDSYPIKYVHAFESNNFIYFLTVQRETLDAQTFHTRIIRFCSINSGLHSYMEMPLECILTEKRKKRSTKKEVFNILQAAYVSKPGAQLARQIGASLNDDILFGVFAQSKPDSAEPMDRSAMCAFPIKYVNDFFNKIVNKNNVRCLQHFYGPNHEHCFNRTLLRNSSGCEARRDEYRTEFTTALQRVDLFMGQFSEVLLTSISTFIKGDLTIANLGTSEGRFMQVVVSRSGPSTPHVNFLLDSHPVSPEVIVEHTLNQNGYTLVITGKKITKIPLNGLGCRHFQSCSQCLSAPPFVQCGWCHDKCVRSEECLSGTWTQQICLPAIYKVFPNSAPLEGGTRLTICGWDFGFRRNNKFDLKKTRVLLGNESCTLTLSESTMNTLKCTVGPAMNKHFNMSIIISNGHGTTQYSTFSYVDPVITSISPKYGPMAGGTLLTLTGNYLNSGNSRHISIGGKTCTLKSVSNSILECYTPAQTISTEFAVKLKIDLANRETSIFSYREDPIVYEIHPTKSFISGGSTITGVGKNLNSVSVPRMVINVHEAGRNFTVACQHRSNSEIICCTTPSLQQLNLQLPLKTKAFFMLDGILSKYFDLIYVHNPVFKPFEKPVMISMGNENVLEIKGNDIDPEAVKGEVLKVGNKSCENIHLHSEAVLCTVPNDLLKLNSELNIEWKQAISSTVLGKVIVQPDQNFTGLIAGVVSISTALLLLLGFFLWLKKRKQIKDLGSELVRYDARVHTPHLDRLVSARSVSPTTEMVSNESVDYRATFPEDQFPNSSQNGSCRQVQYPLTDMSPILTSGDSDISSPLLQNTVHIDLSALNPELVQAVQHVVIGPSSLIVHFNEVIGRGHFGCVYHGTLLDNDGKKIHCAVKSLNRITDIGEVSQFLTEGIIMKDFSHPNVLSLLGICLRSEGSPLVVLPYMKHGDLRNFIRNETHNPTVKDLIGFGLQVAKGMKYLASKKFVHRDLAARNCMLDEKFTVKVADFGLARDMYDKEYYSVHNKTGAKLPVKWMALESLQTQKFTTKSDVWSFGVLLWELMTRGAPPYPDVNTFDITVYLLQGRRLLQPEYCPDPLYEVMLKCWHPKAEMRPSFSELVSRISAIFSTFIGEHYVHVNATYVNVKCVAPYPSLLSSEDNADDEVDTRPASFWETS

Binder	AVG CPM, 3H-thymidine incorporation in MKN45 cells, Ab 0.0 ng/mL (no antibody) [CPM]	AVG CPM, 3H-thymidine incorporation in MKN45 cells, Ab 0.1 ng/mL [CPM]	AVG CPM, 3H-thymidine incorporation in MKN45 cells, Ab 0.4 ng/mL [CPM]	AVG CPM, 3H-thymidine incorporation in MKN45 cells, Ab 2.6 ng/mL [CPM]	AVG CPM, 3H-thymidine incorporation in MKN45 cells, Ab 15.4 ng/mL [CPM]	AVG CPM, 3H-thymidine incorporation in MKN45 cells, Ab 92.6 ng/mL [CPM]	AVG CPM, 3H-thymidine incorporation in MKN45 cells, Ab 555.6 ng/mL [CPM]	AVG CPM, 3H-thymidine incorporation in MKN45 cells, Ab 3333.3 ng/mL [CPM]	AVG CPM, 3H-thymidine incorporation in MKN45 cells, Ab 20000.0 ng/mL [CPM]
B1	44200	41500	44000	47000	28700	14600	16000	16900	18400
B2	48700	51700	53400	54600	44800	23000	18300	18200	16400
B3	51500	45700	47500	53500	22500	12400	13500	13000	11700

biological target: T1, human c-Met ECD-Fc-Flis; assay: HGF-blocking ELISA: HGF signal on coated c-Met ECD-Fc-Flis; Ab 30.52 ng/mL
Method: as §1

Binder	AVG A450 nm [A450 nm]
B1	2.38
B2	2.42
B3	2.08

biological target: T1, human c-Met ECD-Fc-Flis; assay: HGF-blocking ELISA: HGF signal on coated c-Met ECD-Fc-Flis; Ab 1.91 ng/mL
Method: as §1

Binder	AVG A450 nm [A450 nm]
B1	2.31
B2	2.59
B3	2.18

biological target: T1, human c-Met ECD-Fc-Flis; assay: HGF-blocking ELISA: HGF signal on coated c-Met ECD-Fc-Flis; Ab 122.07 ng/mL
Method: as §1

Binder	AVG A450 nm [A450 nm]
B1	1.6
B2	2
B3	1.3

biological target: T2, human c-Met; assay: cell-based or functional assay; remark: another data set of the same source

Binder	Mean Fluorescence (c-Met left on the surface of MKN45 cells, FACS), Ab 5.00 ug/mL
B1	51.1
B2	67.9
B3	56.2

biological target: T1, human c-Met ECD-Fc-Flis; assay: HGF-blocking ELISA: HGF signal on coated c-Met ECD-Fc-Flis; Ab 488.28 ng/mL
Method: as §1

Binder	AVG A450 nm [A450 nm]
B1	0.94
B2	1.33
B3	0.7

biological target: T1, human c-Met ECD-Fc-Flis; assay: HGF-blocking ELISA: HGF signal on coated c-Met ECD-Fc-Flis; Ab 0.48 ng/mL
Method: as §1

Binder	AVG A450 nm [A450 nm]
B1	2.37
B2	2.56
B3	2.05

biological target: T1, human c-Met ECD-Fc-Flis; assay: HGF-blocking ELISA: HGF signal on coated c-Met ECD-Fc-Flis; Ab 7812.50 ng/mL
Method: as §1

Binder	AVG A450 nm [A450 nm]
B1	0.91
B2	0.95
B3	0.57

biological target: T2, human c-Met; assay: cell-based or functional assay; remark: another data set of the same source

Binder	% inhibition of HGF stimulated phospho-Met (ELISA, HCT116 cells), Ab 0.0032 µg/mL [%]	% inhibition of HGF stimulated phospho-Met (ELISA, HCT116 cells), Ab 0.016 µg/mL [%]	% inhibition of HGF stimulated phospho-Met (ELISA, HCT116 cells), Ab 0.08 µg/mL [%]	% inhibition of HGF stimulated phospho-Met (ELISA, HCT116 cells), Ab 0.4 µg/mL [%]	% inhibition of HGF stimulated phospho-Met (ELISA, HCT116 cells), Ab 2 µg/mL [%]	% inhibition of HGF stimulated phospho-Met (ELISA, HCT116 cells), Ab 10 µg/mL [%]
B1	9.72	5.73	20.8	38.1	31.8	1.25
B2	-11.3	-6.06	7.79	16.8	27.9	14.9
B3	-10.7	-2.89	9.77	45.1	59	65.4

biological target: T1, human c-Met ECD-Fc-Flis; assay: HGF-blocking ELISA: HGF signal on coated c-Met ECD-Fc-Flis; Ab 0.00 ng/mL (HGF only)
Method: as §1

Binder	AVG A450 nm [A450 nm]
B1	2.43
B2	2.61
B3	2.61

biological target: T1, human c-Met ECD-Fc-Flis; assay: HGF-blocking ELISA: HGF signal on coated c-Met ECD-Fc-Flis; Ab 1953.13 ng/mL
Method: as §1

Binder	AVG A450 nm [A450 nm]
B1	0.97
B2	1.08
B3	0.6

biological target: T1, human c-Met ECD-Fc-Flis; assay: HGF-blocking ELISA: HGF signal on coated c-Met ECD-Fc-Flis; Ab 125000.00 ng/mL
Method: as §1

Binder	AVG A450 nm [A450 nm]
B1	0.89
B2	1.32
B3	0.38

biological target: T1, human c-Met ECD-Fc-Flis; assay: HGF-blocking ELISA: HGF signal on coated c-Met ECD-Fc-Flis; Ab 31250.00 ng/mL
Method: as §1

Binder	AVG A450 nm [A450 nm]
B1	0.94
B2	0.98
B3	0.56
